Data on 2 molecules can be found in paper PMC5665922, “Modulation of the Vault Protein-Protein Interaction for Tuning of Molecular Release” (Scientific Reports, 2017).

The target in data set [1] is T1, Histidine-tagged INT-interacting MVP domains (His-iMVP), major vault protein domains 3 to 5.
T1 construct: major vault protein (MVP), domains 3, 4 and 5 including the gap between domains 2 and 3, residues 102-276, PCR-amplified from the CP-MVP gene; numbers count on: PDB 2QZV; Cloned NdeI/BamHI in pET-28a; also called MVP domains 3 to 5; source: E. coli BL21(DE3), purified (HisTrap HP; SEC for SPR); not shown: His6, N-terminal, kept
Nature of the data set: SPR; Biacore 3000, His-iMVP immobilised on CM5 (1010 RU), His-INT/DSA/3H injected at 0.12, 0.25 or 0.5 μM, 25 °C, pH 6.0; apparent constants. The following applies: both partners purified.

Data set [2] concerns the target T1, Histidine-tagged INT-interacting MVP …. Nature of the data set: SPR; Biacore 3000, His-iMVP amine-coupled to CM5 (410, 1860 or 1240 RU), His-INT or variant injected, 25 °C, 50 mM PBS, 150 mM NaCl, pH 7.4; 1-to-1 Langmuir fit; apparent constants. The conditions noted are these: both partners purified.
Data set [3] concerns the molecule itself. Description: SEC; His-INT alone at 0.05, 0.01 and 0.005 mM on Superdex 75 10/300 GL; dimer (D) and monomer (M) peaks; dimer to monomers. (In general: In gel filtration, larger molecules generally elute earlier.)

B1: His-INT/DSA/3H (His-INT with histidines substituted at the interaction surface) (domain or fragment)
chain: CIQHWQDAVPWTELLSLQTEDGFWKLTPELGLILNLNTNGLHSFLKQKGIQSLGVKGRECLLDLIATMLVLQFIRTRLEKEGIVFKSLMKMDDASISRNIPWAFEAIKQASEWVRRTEGQYPSICPRLELGNHWDHHTKQLLGLQPISTVSPLHRVLHYSQG
By koff is commonly meant a measure of how fast the partners let go of each other. Usually kon stands for the rate constant with which the complex forms. For the molecule B1, in data set [1], the Kd was 24 nM, the dissociation rate constant (koff) came out at 0.000258 s⁻¹ and the on-rate (kon) came out at 10800 M⁻¹ s⁻¹. For the same molecule, in data set [2], the Kd amounted to 90 nM, the dissociation rate constant (koff) was 0.00134 s⁻¹ and the kon stood at 14900 M⁻¹ s⁻¹.

B2: Histidine-tagged vault-interacting domain of vault poly(ADP-ribose)-polymerase (His-INT) (domain or fragment, UniProt Q9UKK3 1563-1724, looked up)
chain: CIQHWQDAVPWTELLSLQTEDGFWKLTPELGLILNLNTNGLHSFLKQKGIQSLGVKGRECLLDLIATMLVLQFIRTRLEKEGIVFKSLMKMDDASISRNIPWAFEAIKQASEWVRRTEGQYPSICPRLELGNDWDSATKQLLGLQPISTVSPLHRVLHYSQG
notes: vault poly(ADP-ribose)-polymerase (VPARP), C-terminal INT domain, residues 1563-1724 of GenBank AF158255; Cloned NdeI/XhoI in pET-28a; Monomer and dimer in equilibrium; also called wild-type INT; full-length His-INT; source: E. coli BL21(DE3), purified (HisTrap HP, SEC; M fraction used); not shown: His6, N-terminal, kept
In general, stoichiometry N refers to a count of units in the complex or per binding partner. In the case of B2, the “stoichiometry N” value in data set [3] is 2.
